# T1: human CD73 protein (ACRO Biosystems, Cat No. CD3-H52H7) (human, UniProt P21589 27-547)
# T1 sequence: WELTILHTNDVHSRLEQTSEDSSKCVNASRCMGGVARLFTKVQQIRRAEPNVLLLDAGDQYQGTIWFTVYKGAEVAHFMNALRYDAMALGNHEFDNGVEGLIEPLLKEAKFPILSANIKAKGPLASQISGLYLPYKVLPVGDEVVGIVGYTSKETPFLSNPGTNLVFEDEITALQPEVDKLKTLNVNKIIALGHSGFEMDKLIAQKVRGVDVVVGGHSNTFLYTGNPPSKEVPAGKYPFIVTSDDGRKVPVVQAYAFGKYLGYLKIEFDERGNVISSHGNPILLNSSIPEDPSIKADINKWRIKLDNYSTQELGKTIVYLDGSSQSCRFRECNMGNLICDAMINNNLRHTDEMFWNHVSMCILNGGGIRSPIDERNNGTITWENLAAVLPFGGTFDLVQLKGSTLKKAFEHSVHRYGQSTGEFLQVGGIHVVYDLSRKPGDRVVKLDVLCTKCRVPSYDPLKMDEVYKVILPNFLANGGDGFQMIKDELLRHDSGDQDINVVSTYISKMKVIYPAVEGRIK
# T2: mouse CD73/NT5E (ACRO Biosystems, Cat No. CD3-M52H9) (mouse, UniProt Q61503 29-551)
# T2 construct: Bought protein
# T2 sequence (looked up): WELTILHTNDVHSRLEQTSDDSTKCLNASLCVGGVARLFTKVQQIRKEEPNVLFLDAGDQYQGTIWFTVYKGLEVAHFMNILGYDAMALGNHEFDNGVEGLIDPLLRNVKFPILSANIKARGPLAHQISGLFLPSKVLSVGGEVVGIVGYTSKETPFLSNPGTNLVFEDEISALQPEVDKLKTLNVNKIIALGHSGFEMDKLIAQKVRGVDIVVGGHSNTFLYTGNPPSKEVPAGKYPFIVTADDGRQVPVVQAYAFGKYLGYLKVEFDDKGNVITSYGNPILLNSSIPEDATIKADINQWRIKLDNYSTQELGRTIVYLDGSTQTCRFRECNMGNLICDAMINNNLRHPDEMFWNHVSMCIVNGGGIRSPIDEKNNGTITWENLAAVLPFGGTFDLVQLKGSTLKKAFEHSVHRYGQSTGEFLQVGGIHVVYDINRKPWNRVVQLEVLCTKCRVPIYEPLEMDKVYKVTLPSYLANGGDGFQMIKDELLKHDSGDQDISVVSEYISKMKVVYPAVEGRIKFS
# T3: human CD73 on the cell surface (human, UniProt P21589 27-549)
# T3 construct: also called CHOK1-huCD73-3F4 cells; human CD73-expressing cells
# T3 sequence: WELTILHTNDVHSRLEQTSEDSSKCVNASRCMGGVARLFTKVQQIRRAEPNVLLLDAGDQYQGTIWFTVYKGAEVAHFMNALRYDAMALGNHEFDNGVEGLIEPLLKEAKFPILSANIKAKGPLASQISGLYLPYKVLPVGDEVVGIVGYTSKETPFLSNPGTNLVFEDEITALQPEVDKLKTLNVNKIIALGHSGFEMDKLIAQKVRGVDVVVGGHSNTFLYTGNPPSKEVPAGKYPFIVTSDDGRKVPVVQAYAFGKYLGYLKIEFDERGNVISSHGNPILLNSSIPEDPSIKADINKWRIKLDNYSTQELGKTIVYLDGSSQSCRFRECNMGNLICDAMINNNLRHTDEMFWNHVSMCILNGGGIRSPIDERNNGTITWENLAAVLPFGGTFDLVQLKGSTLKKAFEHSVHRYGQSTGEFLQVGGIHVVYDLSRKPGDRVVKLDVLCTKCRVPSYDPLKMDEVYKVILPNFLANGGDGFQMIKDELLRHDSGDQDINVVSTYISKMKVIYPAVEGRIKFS
# Tests used:
# [1] = biological target: T1, human CD73 protein (ACRO Biosystems, …); assay: cell-based or functional assay
# [2] = biological target: T2, mouse CD73/NT5E (ACRO Biosystems, Cat …); assay: SPR (Biacore T200), antibody captured on protein A chip
# Description: (§1) The temperatures of the sample chamber and flow path were set at 25° C. The protein A chips separately captured the antigen-binding proteins as ligands, which were immobilized at about 100 RU. […] Ten mM Glycine, pH 1.5, was regenerated for 60 s at a flow rate of 50 L/min for multiple cycle kinetic detection. The binding rate constant (ka), dissociation rate constant (kd) and dissociation equilibrium rate constant (KD) were fitted using the Fit local mode of a 1:1 binding model.
# [3] = biological target: T3, human CD73 on the cell surface; assay: flow cytometry on CHOK1-huCD73-3F4 cells, PE anti-human Fc
# Description: All the antigen-binding proteins were diluted to 30 μg/ml with PBS solution containing 1% BSA (1% BSA/PBS), diluted at 3-fold into 11 gradients and then added to a 96-well U-shaped plate at 20 μL/well, and negative control (1% BSA/PBS was added only) was set up simultaneously. The suspension of human CD73-expressing cells (CHOK1-huCD73-3F4, Huabo Biopharm) in the logarithmic growth phase were collected and centrifuged at 1000 rpm for 5 min, and the culture medium was discarded; then the cells were resuspended with 1% BSA/PBS to a viable cell density of 1×10⁶/mL, and then added into the 96-well U-shaped plate already added with anti-CD73 antigen-binding protein at 20 μL (2×10⁴ cells)/well for reaction at room temperature for 30 min. […] After the reaction, the cells in the 96-well U-shaped plate were resuspended with 1% BSA/PBS and centrifuged at 300 g for 3 min and the supernatant was discarded; after washing in this manner 3 times, and the cells were finally resuspended with 1% BSA/PBS at 100 μL/well, and the fluorescence intensity of the PE channel was measured with a flow cytometer (BD, #Canto II).
# [4] = biological target: T1, human CD73 protein (ACRO Biosystems, …); assay: SPR (Biacore T200), antibody captured on protein A chip, CD73 as analyte, 1:1 model
# Description: as §1, with “μL/min” for “L/min”
# [5] = biological target: T3, human CD73 on the cell surface; assay: cell-based or functional assay
binder,measurement,setting,value
"900695 (antibody, V domains shown, Constant regions are not restated) VH: QVQLVESGGGLVKPGGSLRLSCAASGFTFSKYAMSWVRQAPGKGLEWVAEISSGGGYINYADSVTGRFTISRDNAKNSLYLQMNSLRAEDTAVYYCARAIYYYGSSYNYYAMDYWGQGTTVTVSS VL: DIQMTQSPSSLSASVGDRVTITCRASQDVGTAEAWYQQKPGKAPKLLIYWASTRHTGVPSRFSGSGSGTDFTLTISSLQPEDFATYYCQQYSSYPLTFGQGTKLEIK","EC50(µg/mL), inhibition of recombinant CD73 (CellTiter-Glo)",[1],0.746 µg/mL
same,binding result,[2],no binding (tested: up to 50 nM analyte)
same,EC50,[3],0.594 µg/mL
same,Kd,[4],2.04 nM
same,koff,[4],6.03e-05 s⁻¹
same,kon,[4],29500 M⁻¹ s⁻¹
"900697 (antibody, V domains shown, Constant regions are not restated) VH: QVQLVESGGGLVKPGGSLRLSCAASGFTFSKYAMSWVRQAPGKGLEWVAEISSGGGYINYADSVTGRFTISRDNAKNSLYLQMNSLRAEDTAVYYCARAIYYYGSSYNYYAMDYWGQGTTVTVSS VL: DIQMTQSPSSLSASVGDRVTITCRASQDVGTAEAWYQQKPGKAPKLLIYWASTLQSGVPSRFSGSGSGTDFTLTISSLQPEDFATYYCQQYSSYPLTFGQGTKLEIK","EC50(µg/mL), inhibition of recombinant CD73 (CellTiter-Glo)",[1],0.585 µg/mL
same,Endocytosis efficiency (%),[5],98.2%
same,binding result,[2],no binding (tested: up to 50 nM analyte)
same,EC50,[3],0.518 µg/mL
same,Kd,[4],1.29 nM
same,koff,[4],0.000492 s⁻¹
same,kon,[4],380000 M⁻¹ s⁻¹
"900698 (antibody, V domains shown, Constant regions are not restated) VH: QVQLVESGGGLVKPGGSLRLSCAASGFTFSKYAMSWIRQAPGKGLEWVAEISSGGGYINYADSVKGRFTISRDNAKNSLYLQMNSLRAEDTAVYYCARAIYYYGSSYNYYAMDYWGQGTTVTVSS VL: DIQMTQSPSSLSASVGDRVTITCRASQDVGTAEAWYQQKPGKAPKLLIYWASTRHTGVPSRFSGSGSGTDFTLTISSLQPEDFATYYCQQYSSYPLTFGQGTKLEIK","EC50(µg/mL), inhibition of recombinant CD73 (CellTiter-Glo)",[1],0.588 µg/mL
same,Endocytosis efficiency (%),[5],96.3%
same,binding result,[2],no binding (tested: up to 50 nM analyte)
same,EC50,[3],0.688 µg/mL
same,Kd,[4],3.12 nM
same,koff,[4],0.00106 s⁻¹
same,kon,[4],339000 M⁻¹ s⁻¹
"900696 (antibody, V domains shown, Constant regions are not restated) VH: QVQLVESGGGLVKPGGSLRLSCAASGFTFSKYAMSWIRQAPGKGLEWVAEISSGGGYINYADSVKGRFTISRDNAKNSLYLQMNSLRAEDTAVYYCARAIYYYGSSYNYYAMDYWGQGTTVTVSS VL: DIQMTQSPSSLSASVGDRVTITCRASQDVGTAEAWYQQKPGKAPKLLIYWASTLQSGVPSRFSGSGSGTDFTLTISSLQPEDFATYYCQQYSSYPLTFGQGTKLEIK","EC50(µg/mL), inhibition of recombinant CD73 (CellTiter-Glo)",[1],0.751 µg/mL
same,binding result,[2],no binding (tested: up to 50 nM analyte)
same,EC50,[3],0.684 µg/mL
same,Kd,[4],4.23 nM
same,koff,[4],0.000928 s⁻¹
same,kon,[4],219000 M⁻¹ s⁻¹
"900581 (antibody, human IgG1, V domains shown) VH: EVQLVESGGGLVKPGGSLKLSCAASGFTFSKYAMSWVRQSPEKRLEWVAEISSGGGYINYPDTVTGRFTISRDNAKNTLYLEMSSLRSGDTAMYYCARAIYYYGSSYNYYAMDYWGQGTSVTVSS VL: DIVMTQSHKFMSTSVGDRVSITCKASQDVGTAEAWYQQKPGQSPKLLIYWASTRHTGVPDRFTGSGSGTDFTLTIGNVQSEDLADYFCQQYSSYPLTFGGGTKLEIK","EC50(µg/mL), inhibition of recombinant CD73 (CellTiter-Glo)",[1],0.262 µg/mL
same,Endocytosis efficiency (%),[5],78.8%
same,binding result,[2],no binding (tested: up to 50 nM analyte)
same,EC50,[3],0.347 µg/mL
same,Kd,[4],1.65 nM
same,koff,[4],0.000439 s⁻¹
same,kon,[4],267000 M⁻¹ s⁻¹

# Source: US20240026024A1 (SHANGHAI HUAOTA BIOPHARMACEUTICAL, published 2024)
